# According to PMC9482650, “Quantitative fragmentomics allow affinity mapping of interactomes” (Nature Communications, 2022):
# How the values were obtained:
# Assay in all cases: holdup assay
# Parameters in all cases: key: below the threshold = too weak to quantify, mostly under pKd 3.1 to 4
# [1] = target: T1, LNX2_2, Q8N448
# T1 sequence (Q8N448 334-432, limits assumed, looked up): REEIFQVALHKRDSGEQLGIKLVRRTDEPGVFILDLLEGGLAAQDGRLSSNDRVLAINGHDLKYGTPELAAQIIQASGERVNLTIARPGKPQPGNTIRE
# [2] = target: GORASP1, Q9BQQ3
# [3] = target: T2, TJP3_3, O95049
# T2 sequence (O95049 375-456, limits assumed, looked up): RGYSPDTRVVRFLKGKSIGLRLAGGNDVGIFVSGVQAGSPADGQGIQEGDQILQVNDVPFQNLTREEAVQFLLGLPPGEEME
# [4] = target: LNX1_1, Q8TBB1
# [5] = target: T3, PDZD2_2, O15018
# T3 sequence (O15018 329-429, limits assumed, looked up): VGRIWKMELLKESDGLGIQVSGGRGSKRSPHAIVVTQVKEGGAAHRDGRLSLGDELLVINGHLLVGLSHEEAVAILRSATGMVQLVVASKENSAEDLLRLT
# [6] = target: T4, PDZD7_3, Q9H5P4
# T4 sequence (Q9H5P4 857-944, limits assumed, looked up): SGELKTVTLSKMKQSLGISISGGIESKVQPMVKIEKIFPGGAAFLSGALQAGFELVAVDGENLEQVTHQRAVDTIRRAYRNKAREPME
# [7] = target: T5, APBA2_1, Q99767
# T5 sequence (Q99767 563-664, limits assumed, looked up): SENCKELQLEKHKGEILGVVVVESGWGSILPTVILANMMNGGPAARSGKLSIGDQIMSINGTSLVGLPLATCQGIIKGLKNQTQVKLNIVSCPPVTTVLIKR
# [8] = target: T6, PDZRN3_1, Q9UPQ7
# T6 sequence (Q9UPQ7 244-349, limits assumed, looked up): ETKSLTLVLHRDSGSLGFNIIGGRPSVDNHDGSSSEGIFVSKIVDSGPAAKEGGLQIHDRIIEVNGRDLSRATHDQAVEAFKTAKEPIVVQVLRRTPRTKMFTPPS
# [9] = target: TJP2_1, Q9UDY2
# [10] = target: GOPC, Q9HD26
# [11] = target: MAGI2_4, Q86UL8
# [12] = target: T7, SYNJ2BP, P57105
# T7 sequence (P57105 8-110, limits assumed, looked up): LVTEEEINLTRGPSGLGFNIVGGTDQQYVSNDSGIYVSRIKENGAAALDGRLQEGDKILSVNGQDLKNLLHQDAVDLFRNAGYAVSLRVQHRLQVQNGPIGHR
# [13] = target: T8, RADIL, Q96JH8
# T8 sequence (Q96JH8 971-1071, limits assumed, looked up): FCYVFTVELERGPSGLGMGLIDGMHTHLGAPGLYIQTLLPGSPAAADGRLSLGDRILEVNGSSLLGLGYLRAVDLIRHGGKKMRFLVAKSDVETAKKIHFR
# [14] = target: T9, LNX2_3, Q8N448
# T9 sequence (Q8N448 463-564, limits assumed, looked up): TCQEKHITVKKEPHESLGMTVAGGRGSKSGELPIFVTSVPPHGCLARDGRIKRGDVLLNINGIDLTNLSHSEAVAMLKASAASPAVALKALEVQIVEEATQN
# [15] = target: SCRIB_3, Q14160
# [16] = target: MAGI2_6, Q86UL8
# [17] = target: MAGI2_5, Q86UL8
# [18] = target: PICK1, Q9NRD5
# [19] = target: T10, MPDZ_5, O75970
# T10 sequence (O75970 695-796, limits assumed, looked up): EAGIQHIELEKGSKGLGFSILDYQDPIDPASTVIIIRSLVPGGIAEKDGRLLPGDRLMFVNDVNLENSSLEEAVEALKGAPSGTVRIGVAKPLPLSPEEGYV
# [20] = target: LNX1_3, Q8TBB1
# [21] = target: NHERF4_2, Q86UT5
# [22] = target: MAGI1_2, Q96QZ7
# [23] = target: T11, NHERF3_4, Q5T2W1
# T11 sequence (Q5T2W1 373-468, limits assumed, looked up): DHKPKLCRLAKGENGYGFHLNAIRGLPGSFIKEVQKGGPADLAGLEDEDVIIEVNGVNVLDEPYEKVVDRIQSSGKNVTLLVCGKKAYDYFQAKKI
# [24] = target: NOS1, P29475
# [25] = target: IL16_3, Q14005
# [26] = target: T12, GRIP1_5, Q9Y3R0
# T12 sequence (Q9Y3R0 568-668, limits assumed, looked up): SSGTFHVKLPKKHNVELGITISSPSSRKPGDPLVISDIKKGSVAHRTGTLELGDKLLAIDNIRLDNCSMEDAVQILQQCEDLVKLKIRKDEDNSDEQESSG
# [27] = plain residues with an end cap or a label only (N-terminal biotin on a linker: ado-ado)
# [28] = plain residues with an end cap or a label only (N-terminal biotin on a linker: ahx)
# [29] = plain residues with an end cap or a label only (N-terminal biotin on a linker: ttds)
# GORASP1, Q9BQQ3, sequence (Q9BQQ3 1-208): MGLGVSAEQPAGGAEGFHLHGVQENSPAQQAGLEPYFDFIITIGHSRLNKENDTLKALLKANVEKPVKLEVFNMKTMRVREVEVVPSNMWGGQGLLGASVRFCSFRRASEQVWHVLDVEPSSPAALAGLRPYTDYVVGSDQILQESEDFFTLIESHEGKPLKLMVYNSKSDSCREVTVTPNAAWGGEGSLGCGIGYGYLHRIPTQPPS
# TJP2_1, Q9UDY2, sequence (Q9UDY2 24-128): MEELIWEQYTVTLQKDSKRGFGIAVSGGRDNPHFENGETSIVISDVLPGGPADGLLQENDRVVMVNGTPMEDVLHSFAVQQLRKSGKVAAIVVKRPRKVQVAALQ
# LNX1_1, Q8TBB1, sequence (Q8TBB1 261-371): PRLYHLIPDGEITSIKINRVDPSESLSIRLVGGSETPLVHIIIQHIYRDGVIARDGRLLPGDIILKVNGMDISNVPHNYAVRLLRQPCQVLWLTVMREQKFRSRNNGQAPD
# MAGI2_4, Q86UL8, sequence (Q86UL8 772-865): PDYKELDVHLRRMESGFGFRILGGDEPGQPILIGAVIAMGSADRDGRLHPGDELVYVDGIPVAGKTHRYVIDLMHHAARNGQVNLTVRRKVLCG
# IL16_3, Q14005, sequence (Q14005 1107-1207): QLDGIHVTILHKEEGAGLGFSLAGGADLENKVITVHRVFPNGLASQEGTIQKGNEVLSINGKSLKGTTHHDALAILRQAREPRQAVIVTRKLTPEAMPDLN
# PICK1, Q9NRD5, sequence (Q9NRD5 17-115): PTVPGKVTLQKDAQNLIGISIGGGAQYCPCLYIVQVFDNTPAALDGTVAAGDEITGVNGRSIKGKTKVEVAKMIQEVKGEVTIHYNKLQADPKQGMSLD
# MAGI2_5, Q86UL8, sequence (Q86UL8 915-1017): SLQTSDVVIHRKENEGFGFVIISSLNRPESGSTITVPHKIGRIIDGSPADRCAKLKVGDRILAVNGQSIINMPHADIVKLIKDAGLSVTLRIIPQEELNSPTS
# MAGI1_2, Q96QZ7, sequence (Q96QZ7 456-580): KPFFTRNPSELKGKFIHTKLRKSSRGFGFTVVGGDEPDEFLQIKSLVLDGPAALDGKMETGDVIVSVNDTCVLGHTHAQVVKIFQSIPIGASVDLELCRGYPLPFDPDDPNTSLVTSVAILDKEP
# LNX1_3, Q8TBB1, sequence (Q8TBB1 500-596): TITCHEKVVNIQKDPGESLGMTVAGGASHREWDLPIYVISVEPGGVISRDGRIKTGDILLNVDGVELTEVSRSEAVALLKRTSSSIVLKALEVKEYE
# MAGI2_6, Q86UL8, sequence (Q86UL8 1141-1229): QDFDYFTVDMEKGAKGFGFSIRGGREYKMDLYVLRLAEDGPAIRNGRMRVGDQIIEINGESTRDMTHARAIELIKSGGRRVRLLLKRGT
# NHERF4_2, Q86UT5, sequence (Q86UT5 220-308): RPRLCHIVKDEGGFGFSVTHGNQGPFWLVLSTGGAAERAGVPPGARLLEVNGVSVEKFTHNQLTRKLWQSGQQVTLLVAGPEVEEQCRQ
# NOS1, P29475, sequence (P29475 9-101): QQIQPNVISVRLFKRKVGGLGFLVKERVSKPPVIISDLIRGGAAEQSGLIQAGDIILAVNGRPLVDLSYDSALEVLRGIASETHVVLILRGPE
# SCRIB_3, Q14160, sequence (Q14160 999-1103): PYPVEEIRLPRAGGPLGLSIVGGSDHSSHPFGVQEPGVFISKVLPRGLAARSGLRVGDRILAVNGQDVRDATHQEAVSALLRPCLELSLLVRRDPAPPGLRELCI
binder,measurement,setting,value
"ELKAEDEVQI [DCHS2, Q6V1P9]",pKd,[1]; [27],3.71
same,pKd,[2]; [27],below the threshold
same,pKd,[3]; [27],below the threshold
same,pKd,[4]; [27],below the threshold
same,pKd,[5]; [27],below the threshold
same,pKd,[6]; [27],below the threshold
same,pKd,[7]; [27],below the threshold
same,pKd,[8]; [27],below the threshold
same,pKd,[9]; [27],below the threshold
same,pKd,[10]; [27],below the threshold
same,pKd,[11]; [27],below the threshold
same,pKd,[12]; [27],below the threshold
same,pKd,[13]; [27],below the threshold
same,pKd,[14]; [27],below the threshold
same,pKd,[15]; [27],below the threshold
same,pKd,[16]; [27],below the threshold
same,pKd,[17]; [27],below the threshold
same,pKd,[18]; [27],4.13
same,pKd,[19]; [27],below the threshold
same,pKd,[20]; [27],below the threshold
same,pKd,[21]; [27],below the threshold
same,pKd,[22]; [27],below the threshold
same,pKd,[23]; [27],below the threshold
same,pKd,[24]; [27],3.74
same,pKd,[25]; [27],below the threshold
same,pKd,[26]; [27],below the threshold
"SAPATLSSRA [PDLIM2, Q96JY6]",pKd,[1]; [28],below the threshold
same,pKd,[2]; [28],below the threshold
same,pKd,[3]; [28],below the threshold
same,pKd,[4]; [28],3.67
same,pKd,[5]; [28],below the threshold
same,pKd,[6]; [28],below the threshold
same,pKd,[7]; [28],below the threshold
same,pKd,[8]; [28],below the threshold
same,pKd,[9]; [28],below the threshold
same,pKd,[10]; [28],below the threshold
same,pKd,[11]; [28],below the threshold
same,pKd,[12]; [28],below the threshold
same,pKd,[13]; [28],below the threshold
same,pKd,[14]; [28],below the threshold
same,pKd,[15]; [28],below the threshold
same,pKd,[16]; [28],below the threshold
same,pKd,[17]; [28],below the threshold
same,pKd,[18]; [28],below the threshold
same,pKd,[19]; [28],below the threshold
same,pKd,[20]; [28],below the threshold
same,pKd,[21]; [28],below the threshold
same,pKd,[22]; [28],below the threshold
same,pKd,[23]; [28],below the threshold
same,pKd,[24]; [28],below the threshold
same,pKd,[25]; [28],below the threshold
same,pKd,[26]; [28],below the threshold
"ADENEQVSAV [RAPGEF6, Q8TEU7]",pKd,[1]; [28],below the threshold
same,pKd,[2]; [28],below the threshold
same,pKd,[3]; [28],below the threshold
same,pKd,[4]; [28],below the threshold
same,pKd,[5]; [28],5.5
same,pKd,[6]; [28],3.83
same,pKd,[7]; [28],below the threshold
same,pKd,[8]; [28],3.79
same,pKd,[9]; [28],below the threshold
same,pKd,[10]; [28],below the threshold
same,pKd,[11]; [28],below the threshold
same,pKd,[12]; [28],3.74
same,pKd,[13]; [28],below the threshold
same,pKd,[14]; [28],below the threshold
same,pKd,[15]; [28],below the threshold
same,pKd,[16]; [28],4.19
same,pKd,[17]; [28],4.38
same,pKd,[18]; [28],below the threshold
same,pKd,[19]; [28],below the threshold
same,pKd,[20]; [28],below the threshold
same,pKd,[21]; [28],below the threshold
same,pKd,[22]; [28],3.83
same,pKd,[23]; [28],below the threshold
same,pKd,[24]; [28],3.61
same,pKd,[25]; [28],below the threshold
same,pKd,[26]; [28],below the threshold
"SGGKRKETLV [NET1, Q7Z628]",pKd,[1]; [29],4.66
same,pKd,[2]; [29],below the threshold
same,pKd,[3]; [29],below the threshold
same,pKd,[4]; [29],below the threshold
same,pKd,[5]; [29],4.25
same,pKd,[6]; [29],4.54
same,pKd,[7]; [29],below the threshold
same,pKd,[8]; [29],4.67
same,pKd,[9]; [29],3.8
same,pKd,[10]; [29],3.82
same,pKd,[11]; [29],4.75
same,pKd,[12]; [29],5.2
same,pKd,[13]; [29],3.82
same,pKd,[14]; [29],below the threshold
same,pKd,[15]; [29],4.31
same,pKd,[16]; [29],3.54
same,pKd,[17]; [29],4.56
same,pKd,[18]; [29],below the threshold
same,pKd,[19]; [29],below the threshold
same,pKd,[20]; [29],below the threshold
same,pKd,[21]; [29],below the threshold
same,pKd,[22]; [29],5.72
same,pKd,[23]; [29],below the threshold
same,pKd,[24]; [29],4.09
same,pKd,[25]; [29],below the threshold
same,pKd,[26]; [29],below the threshold
